Data reported in US20260176675.

Biological target: Eosinophil peroxidase (EPX) (Homo sapiens) (UniProt P11678+P11678)
Test: cleavage_in_vitro
Settings: 30 min

Chain of Eosinophil peroxidase (EPX) (Homo sapiens) (P11678 140-250, chain 1 of 2): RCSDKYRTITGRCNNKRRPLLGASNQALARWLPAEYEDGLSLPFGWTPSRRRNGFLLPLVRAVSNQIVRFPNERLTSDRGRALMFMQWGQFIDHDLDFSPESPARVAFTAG
Chain of Eosinophil peroxidase (EPX) (Homo sapiens) (P11678 251-715, chain 2 of 2): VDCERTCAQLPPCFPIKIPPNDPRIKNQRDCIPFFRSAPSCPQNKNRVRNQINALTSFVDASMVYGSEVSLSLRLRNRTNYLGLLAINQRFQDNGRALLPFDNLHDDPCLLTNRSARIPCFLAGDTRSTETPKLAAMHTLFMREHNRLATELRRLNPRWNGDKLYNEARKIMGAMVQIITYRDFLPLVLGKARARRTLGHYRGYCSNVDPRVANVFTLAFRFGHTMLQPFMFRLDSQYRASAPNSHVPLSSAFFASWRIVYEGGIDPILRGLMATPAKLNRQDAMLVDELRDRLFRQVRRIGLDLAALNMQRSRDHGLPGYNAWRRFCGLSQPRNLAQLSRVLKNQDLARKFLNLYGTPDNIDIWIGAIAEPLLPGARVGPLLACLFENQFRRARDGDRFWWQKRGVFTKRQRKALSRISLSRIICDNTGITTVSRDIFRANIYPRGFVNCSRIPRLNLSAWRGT

Row | Sequence | activity (single riboadenosine cleavage site in FS flanked by dabcyl-dT (5') and fluorescein-dT (3') [13 dabcyl-dT, 14 riboadenosine (R), 15 fluorescein-dT], 50 nM EPX, selection buffer with 15 mM MgCl2, RT) [% cleavage] | Kd (single riboadenosine cleavage site in FS flanked by dabcyl-dT (5') and fluorescein-dT (3') [13 dabcyl-dT, 14 riboadenosine (R), 15 fluorescein-dT], apparent Kd = EPX concentration giving 50% of maximum cleavage, 50 mM HEPES pH 7.5, 150 mM NaCl, 15 mM MgCl2, 0.01% Tween20, RT) [nM] | activity (single riboadenosine cleavage site in FS flanked by dabcyl-dT (5') and fluorescein-dT (3'), EPX-activated RNA-cleaving DNAzyme, selection buffer, RT, no cleavage in buffer alone) [% cleavage]
1 | CTATGAACTGACTATGACCTCACTACCAAGATGCCATCCTACCAACGGTCGATGGATGAGTAATACAGGCCGGATGGGTACAGTCG [EPDz20M4 ligated to FS (FS-EPDz20M4)] | 18 | 30 | –
2 | CTATGAACTGACTATGACCTCACTACCAAGATGCCATCCTACCAACGGTCGATGGATGAGTAATACAGGCCGGATGGGTACAGTCGTAATCTATTCGAGCTCTGAACTCG [EPDz20 ligated to FS] | – | – | 15
